The data set deals with the molecule itself. In words: crystal structure; OXA-10 crystals (hanging drop, 4 °C, 20–23% PEG 3350, 0.2 M magnesium formate) soaked about 2 min with IPM; 1.89 Å, P212121, two chains in the asymmetric unit; dimer interface analysed with PISA.

B1: OXA-10 class D β-lactamase (enzyme)
chain: GSITENTSWNKEFSAEAVNGVFVLCKSSSKSCATNDLARASKEYLPASTFKIPNAIIGLETGVIKNEHQVFKWDGKPRAMKQWERDLTLRGAIQVSAVPVFQQIAREVGEVRMQKYLKKFSYGNQNISGGIDKFWLEGQLRISAVNQVEFLESLYLNKLSASKENQLIVKEALVTEAAPEYLVHSKTGFSGVGTESNPGVAWWVGWVEKETEVYFFAFNMDIDNESKLPLRKSIPTKIMESEGIIGG
modifications: carboxylated lysine 70 (KCX70); S67 OG covalently bound to the ring-opened carbapenem (IPM or ETP, acyl-enzyme)
notes: Crystals were soaked with imipenem (6SKP) or ertapenem (6SKR); two chains (A, B) in the asymmetric unit; also called OXA-10_IPM; OXA-10_ETP
On to B1, for which the binding result is given as “binds”.

For the origin of these results see paper PMC7459404, “Structural insights into the enhanced carbapenemase efficiency of OXA‐655 compared to OXA‐10” (FEBS Open Bio, 2020).
